The values that follow come from paper PMC6792017 (The EMBO Journal, 2019).

In this test the target is T1, HA-tagged caspase-1 p10 plus p20 C285S active-site mutant (human, UniProt P29466 120-297; P29466 317-404, C285S).
T1 sequence (looked up) 1: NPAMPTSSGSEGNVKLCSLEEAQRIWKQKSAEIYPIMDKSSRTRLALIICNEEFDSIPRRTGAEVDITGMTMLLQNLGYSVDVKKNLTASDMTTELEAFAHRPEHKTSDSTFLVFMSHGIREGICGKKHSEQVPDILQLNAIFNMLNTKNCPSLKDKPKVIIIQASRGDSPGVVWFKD
T1 sequence (looked up) 2: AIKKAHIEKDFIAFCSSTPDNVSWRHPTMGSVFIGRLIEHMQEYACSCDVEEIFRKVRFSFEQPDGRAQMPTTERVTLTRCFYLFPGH
Briefly: non-reducing SDS-PAGE with Western blot.

B1: active recombinant human PRDX4 (non-reduced) (enzyme, UniProt Q13162 38-271, looked up)
chain: WETEERPRTREEECHFYAGGQVYPGEASRVSVADHSLHLSKAKISKPAPYWEGTAVIDGEFKELKLTDYRGKYLVFFFYPLDFTFVCPTEIIAFGDRLEEFRSINTEVVACSVDSQFTHLAWINTPRRQGGLGPIRIPLLSDLTHQISKDYGVYLEDSGHTLRGLFIIDDKGILRQITLNDLPVGRSVDETLRLVQAFQYTDKHGEVCPAGWKPGSETIIPDPAGKLKYFDKLN
For B1, the binding result is “binds”.
